We go through one substance from article doi:10.1101/2023.06.09.544317.

The target of this assay is tRNA pseudouridine synthase from archaea (Q8U2C1) (P. furiosus). In words: mass photometry.

Take “tRNA pseudouridine synthase from archaea (Q8U2C1) (enzyme)”: the stoichiometry N amounted to 2.
